# Source: the emibetuzumab library of Makowski et al. (2022)
# B1: VH:VL chains; a variant is named by its letters at X, in order (parent)
# chain 1: QVQLVQSGAEVKKPGASVKVSCKASGYTFTDYXMHWVRQAPGQGLEWMGXVNPNXXXTTYNQKFEGRVTMTTDTSTSTAYMELRSLRSDDTAVYYCARXNXLDXWGQGTTVTVSS
# chain 2: DIQMTQSPSSLSASVGDRVTITCSVSSSVSSIYLHWYQQKPGKAPKLLIYSTSNLASGVPSRFSGSGSGTDFTLTISSLQPEDFATYYCQVYSGYPLTFGGGTKVEIK
# Variants of: B1
# Experiment: yeast display scFab, FACS + sequencing
# In short: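 Non-specific binding was called from deep sequencing of sorted yeast cells displaying a heavy-chain CDR mutant scFab library. Cells labelled with anti-Myc and biotinylated ovalbumin (260 μg/mL in PBSB, 3 h, room temperature) or soluble membrane proteins (130 μg/mL, 20 min on ice) were FACS-sorted, collecting the top 25% and bottom 10% of binders from two replicates. A sequence was positive when present in ≥3 of 4 pooled positive samples and absent from all negatives, and negative under the converse rule.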
row,Variant,non-specific binding call
1,YRKRGSSA,binds
2,VRRGGALD,binds
3,YRREGSGV,binds
4,YRRGSSGF,binds
5,YRRGSSGA,binds
6,YRRGSSGS,binds
7,YRRESAGF,binds
8,FRKGGSLD,binds
9,YRKGTAGD,binds
10,YRKGSASD,binds
11,FRRGDALD,binds
12,YRRGDSSA,binds
13,YRRGGFGA,binds
14,YRRGGFGV,binds
15,YRRGSAGF,binds
16,YRRGSAGS,binds
17,YRKKGALY,binds
18,FRRGGASA,binds
19,VRRGSFGA,binds
20,YRRGGSSA,binds
21,VRKGGSLD,binds
22,FRKGTALD,binds
23,VRRGDSVA,binds
24,FRKRSFSS,binds
25,YRRGSSLV,binds
26,YRRGSSLY,binds

row,Variant,non-specific binding call
1,YRRGSSLF,binds
2,YRRGSSLS,binds
3,FRRGGALD,binds
4,YRKGSSLF,binds
5,VRRGSSAD,binds
6,VRRGSSAV,binds
7,VRRGSSAF,binds
8,VRRGSSAS,binds
9,YRRGSAVA,binds
10,YRRGSAVY,binds
11,YRRGSAVD,binds
12,YRRGSFAA,binds
13,YRRESSGV,binds
14,YRRESSGY,binds
15,VRRASSVA,binds
16,YRRGASGV,binds
17,YRKGGFVA,binds
18,DRREDSSA,no binding
19,YRKRTFGA,binds
20,DRRANFLY,binds
21,FRRGDAGD,binds
22,YRRGSSSV,binds
23,YRRGSSSA,binds
24,YRRGGSAV,binds
25,YRRGGSAA,binds
26,YRREGSLA,binds

row,Variant,non-specific binding call
1,YRREGSLD,binds
2,YRKGSSGF,binds
3,YRKGSSGA,binds
4,YRKGSSGD,binds
5,YRKGSSGV,binds
6,YRRGDAGF,binds
7,YRRGDAGS,binds
8,DRREGYGA,binds
9,YRRGGSWV,binds
10,YRRGGSWD,binds
11,YRKGSSAA,binds
12,FRKGSAVD,binds
13,YRKGSAGD,binds
14,VRRGSSVS,binds
15,VRRGSSVV,binds
16,YRRGDDGD,binds
17,SRKGGDAA,no binding
18,SRRETFVF,binds
19,YRRGGDGA,binds
20,FRRGDSAA,binds
21,YRREGSVV,binds
22,YRKRSVVF chain 1 S115F,binds
23,SRKKGDGS,binds
24,YRKGSAWD,binds
25,VRRGDFWA,no binding
26,VRRGDAGY,no binding

row,Variant,non-specific binding call
1,FRRGGSAF,binds
2,FRRGGSAA,binds
3,FRRGGSAD,binds
4,DRRGDSSA,no binding
5,YRRGAAAA,binds
6,YRRGAAAV,binds
7,FRRGGAWV,binds
8,FRRGGAWD,binds
9,FRRGGAWY,binds
10,DRRGDDVF,no binding
11,YRKGGSGA,binds
12,YRKGGSGY,binds
13,YRKGGSGV,binds
14,ARRGAAGV,binds
15,YRKRGAVD,binds
16,YRRGSASD,binds
17,YRRGSASV,binds
18,YRRGSASS,binds
19,FRRGDAAV,binds
20,YRRGDSAD,binds
21,YRRGGAAA,binds
22,YRRGGAAY,binds
23,YRRGGAAD,binds
24,YRRGGAAF,binds
25,YRRGGAAS,binds
26,YRRGGAAV,binds

row,Variant,non-specific binding call
1,YRRANFLD,binds
2,FRRGSSGD,binds
3,FRRGSSGA,binds
4,FRRGSSGS,binds
5,FRKGGSGD,binds
6,FRKGGSGV,binds
7,VRRGSASD,binds
8,YRREGDWA,binds
9,VRKRGSSS,binds
10,VRKKGYVY,binds
11,YRKRGSVV,binds
12,YRKRGSVF,binds
13,ARRGSDVA,no binding
14,DRRGDAVY,no binding
15,DRRGDAVA,no binding
16,DRKGGDWS,binds
17,VRRGSSGD,binds
18,FRKRGAWY,binds
19,VRRETVSD,binds
20,DRREDALD,no binding
21,YRKGGDLY,no binding
22,YRKKTDWS,binds
23,ARKGSSGD,binds
24,FRRGSSAV,binds
